Measured values: PMC7356358 (Biomolecules, 2020)
Read-outs that look alike come from different tables or passages of the source.

Assays:
[1] = ATPase activity (released inorganic phosphate); assay type: biochemical; conditions: PfHsp40 preparation alone, non-ATPase control
Method: Hsp70 proteins at final concentration of 0.4 μM were each incubated for 5 min in buffer HKMD (10 mM HEPES-KOH pH 7.5, 100 mM KCl, 2 mM MgCl2 and 0.5 mM DTT). The reaction was initiated by the addition of ATP at various concentrations (0–5 mM) and samples were analyzed every 30 min for 4 h.

DnaK = DnaK (Escherichia coli, UniProt P0A6Y8); conditions: MP-SPR, PfHsp40 over immobilized DnaK, three runs
KPf = conditions: MP-SPR, PfHsp40 over immobilized KPf, three runs
Method: The analysis was conducted both in the absence and presence of 5 mM of ATP/ADP. The ligand and analyte pairs were swapped, and the data generated were analyzed after global fitting. Association was allowed for 2 min, and dissociation was monitored for 8 min. Data analysis was conducted using TraceDrawer software version 1.8 (Ridgeview Instruments).

PfHsp70-1 = assay: Interaction of PfHsp40 with PfHsp70-1 by MP-SPR; assay type: binding, Plasmodium falciparum
PfHsp70-1, sequence (P11144 1-630 limits assumed): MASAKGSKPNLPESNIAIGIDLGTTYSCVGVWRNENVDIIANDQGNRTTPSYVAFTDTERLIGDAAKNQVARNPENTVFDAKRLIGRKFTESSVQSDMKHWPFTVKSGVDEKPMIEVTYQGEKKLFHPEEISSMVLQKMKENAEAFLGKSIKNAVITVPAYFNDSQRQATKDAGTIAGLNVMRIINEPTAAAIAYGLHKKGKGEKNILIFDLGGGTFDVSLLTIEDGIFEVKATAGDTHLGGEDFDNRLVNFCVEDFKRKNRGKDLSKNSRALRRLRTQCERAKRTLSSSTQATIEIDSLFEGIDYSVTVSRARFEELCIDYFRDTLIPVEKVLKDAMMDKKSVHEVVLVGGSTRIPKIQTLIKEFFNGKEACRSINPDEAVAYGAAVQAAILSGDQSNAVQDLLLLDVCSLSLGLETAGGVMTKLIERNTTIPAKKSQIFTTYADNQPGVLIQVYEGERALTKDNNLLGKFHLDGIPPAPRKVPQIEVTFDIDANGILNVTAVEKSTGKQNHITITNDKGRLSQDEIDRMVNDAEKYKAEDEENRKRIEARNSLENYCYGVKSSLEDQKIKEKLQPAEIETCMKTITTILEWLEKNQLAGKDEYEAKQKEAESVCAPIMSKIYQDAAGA

DnaK, sequence (P0A6Y8 whole entry): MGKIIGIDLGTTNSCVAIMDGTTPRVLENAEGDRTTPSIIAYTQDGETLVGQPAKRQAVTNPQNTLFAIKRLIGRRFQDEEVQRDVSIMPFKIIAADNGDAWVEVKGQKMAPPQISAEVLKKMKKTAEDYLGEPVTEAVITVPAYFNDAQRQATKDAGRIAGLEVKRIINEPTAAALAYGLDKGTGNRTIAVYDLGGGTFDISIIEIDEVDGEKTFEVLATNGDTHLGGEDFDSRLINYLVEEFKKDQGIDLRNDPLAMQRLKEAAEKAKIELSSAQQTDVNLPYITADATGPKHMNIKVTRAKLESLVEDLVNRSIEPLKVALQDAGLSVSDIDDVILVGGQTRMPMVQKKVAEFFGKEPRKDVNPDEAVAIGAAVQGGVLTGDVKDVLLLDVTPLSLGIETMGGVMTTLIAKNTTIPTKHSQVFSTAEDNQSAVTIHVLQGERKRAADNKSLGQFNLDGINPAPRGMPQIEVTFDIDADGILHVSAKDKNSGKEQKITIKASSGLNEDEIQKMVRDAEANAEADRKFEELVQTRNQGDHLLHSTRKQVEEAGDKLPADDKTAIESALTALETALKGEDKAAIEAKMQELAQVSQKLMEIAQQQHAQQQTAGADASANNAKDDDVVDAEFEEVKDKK
KPf, sequence (P11144 405-631 limits assumed): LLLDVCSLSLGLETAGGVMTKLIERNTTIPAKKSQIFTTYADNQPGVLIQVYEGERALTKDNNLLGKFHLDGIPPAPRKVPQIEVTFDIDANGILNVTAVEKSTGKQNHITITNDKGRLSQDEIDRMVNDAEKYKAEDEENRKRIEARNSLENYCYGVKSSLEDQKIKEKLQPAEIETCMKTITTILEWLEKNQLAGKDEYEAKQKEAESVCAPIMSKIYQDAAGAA

B1: PfHsp40: P. falciparum type I Hsp40 (PF3D7_1437900), co-chaperone of PfHsp70-1 (protein)
chain: MFFSSGFPFDSMGGQQARRKREVNNNKFYEVLNLKKNCTTDEVKKAYRKLAIIHHPDKGGDPEKFKEISRAYEVLSDEEKRKLYDEYGEEGLENGEQPADATDLFDFILNAGKGKKKRGEDIVSEVKVTLEQLYNGATKKLAISKDIICTNCEGHGGPKDAKVDCKQCNGRGTKTYMRYHSSVLHQTEVTCNTCRGKGKIFNEKDKCANCKGMCVLKTRKIIEVYIPKGAPNKHKIVFNGEADEKPNVITGNLVVILNEKQHPVFRREGIDLFMNYKISLYESLTGFVAEVTHLDERKILVNCTNSGFIRHGDIREVLDEGMPTYKDPFKKGNLYITFEVEYPMDLIITNENKEVLKILKKQNEVEKKYDLENSELEVVSCSPVDKEYIKVRVTKQQQQQQQEAYDDEDHQPEMEGGRVACAQQ
modifications: left off: His6, N-terminal, state not stated
[1]
  independent basal ATPase activity: no detectable
DnaK; + 5 mM ADP
  Ka: 1.16 (±0.06) × 10^2 Ms^−1
DnaK; + 5 mM ATP
  Ka: 1.22 (±0.02) × 10^2 Ms^−1
DnaK; no nucleotide
  Ka: 1.12 (±0.02) × 10^2 Ms^−1
KPf; + 5 mM ADP
  Ka: 1.36 (±0.26) × 10^2 Ms^−1
KPf; + 5 mM ATP
  Ka: 1.72 (±0.02) × 10^2 Ms^−1
KPf; no nucleotide
  Ka: 1.24 (±0.04) × 10^4 Ms^−1
PfHsp70-1; PfHsp40 over immobilized PfHsp70-1, + 5 mM ADP, three runs
  Ka: 1.53 (±0.03) × 10^3 Ms^−1
PfHsp70-1; PfHsp40 over immobilized PfHsp70-1, no nucleotide, three runs
  Ka: 1.33 (±0.03) × 10^3 Ms^−1
PfHsp70-1; analyte PfHsp40 0-2000 nM over immobilized PfHsp70-1, + 5 mM ATP, global fit, mean (SD) of three runs
  Ka: 1.81 (±0.01) × 10^2 Ms^−1
